One molecule from patent WO2013015821A1 can be followed below.

Assay [1] has as its target TCblR with the cytoplasmic tail deleted, membrane-anchored on HEK293 cells (human) (UniProt Q9NPF0). Briefly: TC-[57Co]Cbl on HEK293 cells expressing TCblR with the cytoplasmic tail deleted, surface counts released by trypsin/EDTA.
Assay [2] addresses human transcobalamin receptor (TCblR/CD320), full length, on cells (human) (UniProt Q9NPF0). Put plainly: TC-[57Co]Cbl on normal and TCblR overexpressing HEK 293 cells, 1 hour at 37°C, surface counts released by trypsin/EDTA.

UniProt Q9NPF0, sequence (Q9NPF0 36-282 limits assumed): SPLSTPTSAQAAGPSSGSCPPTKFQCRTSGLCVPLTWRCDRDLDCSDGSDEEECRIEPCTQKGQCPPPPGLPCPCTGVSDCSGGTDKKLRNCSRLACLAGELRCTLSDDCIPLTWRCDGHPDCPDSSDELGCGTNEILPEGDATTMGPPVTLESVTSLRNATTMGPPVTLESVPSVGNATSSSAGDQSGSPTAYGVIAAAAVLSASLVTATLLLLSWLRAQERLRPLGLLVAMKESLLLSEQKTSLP

B1: transcobalamin saturated with cobalamin (TC-Cbl) (ligand, human, UniProt P20062 19-427, looked up)
chain: EMCEIPEMDSHLVEKLGQHLLPWMDRLSLEHLNPSIYVGLRLSSLQAGTKEDLYLHSLKLGYQQCLLGSAFSEDDGDCQGKPSMGQLALYLLALRANCEFVRGHKGDRLVSQLKWFLEDEKRAIGHDHKGHPHTSYYQYGLGILALCLHQKRVHDSVVDKLLYAVEPFHQGHHSVDTAAMAGLAFTCLKRSNFNPGRRQRITMAIRTVREEILKAQTPEGHFGNVYSTPLALQFLMTSPMRGAELGTACLKARVALLASLQDGAFQNALMISQLLPVLNHKTYIDLIFPDCLAPRVMLEPAAETIPQTQEIISVTLQVLSLLPPYRQSISVLAGSTVEDVLKKAHELGGFTYETQASLSGPYLTSVMGKAAGEREFWQLLRDPNTPLLQGIADYRPKDGETIELRLVSW
modifications: cobalamin bound non-covalently ([57Co]Cbl in the radio assays)
For B1, the % of the TCblR-bound radiolabel remaining on the cell surface in assay [1] stood at 80%. Besides, the % of the radiolabel on the membrane in assay [2] fell in the range of 37 to 43%.
